The series deals with T1, activated insulin receptor (pYpY1162/1163-IR) of mouse MS-1 endothelial cells, P15208.
T1 chain: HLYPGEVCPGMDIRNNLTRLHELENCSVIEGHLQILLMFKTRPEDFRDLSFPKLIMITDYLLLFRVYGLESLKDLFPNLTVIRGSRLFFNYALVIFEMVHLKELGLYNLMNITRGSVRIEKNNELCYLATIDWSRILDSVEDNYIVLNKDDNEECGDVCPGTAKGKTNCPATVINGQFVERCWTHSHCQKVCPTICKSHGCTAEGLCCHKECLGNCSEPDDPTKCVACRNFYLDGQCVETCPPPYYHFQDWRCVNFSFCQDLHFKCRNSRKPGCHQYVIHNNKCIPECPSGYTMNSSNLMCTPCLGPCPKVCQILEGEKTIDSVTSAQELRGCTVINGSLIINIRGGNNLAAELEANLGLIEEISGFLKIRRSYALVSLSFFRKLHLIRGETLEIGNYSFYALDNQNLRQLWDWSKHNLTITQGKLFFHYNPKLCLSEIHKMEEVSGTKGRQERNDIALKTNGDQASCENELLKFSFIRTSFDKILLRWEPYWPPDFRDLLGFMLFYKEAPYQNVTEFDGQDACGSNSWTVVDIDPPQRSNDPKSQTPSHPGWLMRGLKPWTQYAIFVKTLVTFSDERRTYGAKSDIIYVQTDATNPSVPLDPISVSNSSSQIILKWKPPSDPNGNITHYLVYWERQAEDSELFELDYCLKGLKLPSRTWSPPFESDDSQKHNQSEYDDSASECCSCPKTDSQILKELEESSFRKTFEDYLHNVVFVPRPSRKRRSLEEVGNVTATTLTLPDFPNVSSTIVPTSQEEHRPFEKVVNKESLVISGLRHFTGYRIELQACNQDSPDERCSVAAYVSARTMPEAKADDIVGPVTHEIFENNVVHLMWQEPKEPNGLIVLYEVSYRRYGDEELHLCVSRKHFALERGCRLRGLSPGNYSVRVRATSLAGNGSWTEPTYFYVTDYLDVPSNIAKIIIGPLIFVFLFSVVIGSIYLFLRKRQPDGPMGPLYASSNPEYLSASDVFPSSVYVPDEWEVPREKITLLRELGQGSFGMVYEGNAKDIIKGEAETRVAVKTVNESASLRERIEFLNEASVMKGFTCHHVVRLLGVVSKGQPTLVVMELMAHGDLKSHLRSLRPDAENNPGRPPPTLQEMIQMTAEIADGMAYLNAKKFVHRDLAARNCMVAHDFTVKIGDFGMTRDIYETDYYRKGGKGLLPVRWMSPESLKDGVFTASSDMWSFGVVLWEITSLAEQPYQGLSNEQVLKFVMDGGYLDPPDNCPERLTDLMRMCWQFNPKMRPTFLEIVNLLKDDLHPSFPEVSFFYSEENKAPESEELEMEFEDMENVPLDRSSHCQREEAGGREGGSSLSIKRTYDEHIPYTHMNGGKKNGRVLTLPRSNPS

B1: HA-tagged C215S mutant form of full-length PTP1B (protein)
chain: MEMEKEFEQIDKSGSWAAIYQDIRHEASDFPCRVAKLPKNKNRNRYRDVSPFDHSRIKLHQEDNDYINASLIKMEEAQRSYILTQGPLPNTCGHFWEMVWEQKSRGVVMLNRVMEKGSLKCAQYWPQKEEKEMIFEDTNLKLTLISEDIKSYYTVRQLELENLTTQETREILHFHYTTWPDFGVPESPASFLNFLFKVRESGSLSPEHGPVVVHSSAGIGRSGTFCLADTCLLLMDKRKDPSSVDIKKVLLEMRKFRMGLIQTADQLRFSYLAVIEGAKFIMGDSSVQDQWKELSHEDLEPPPEHIPPPPRPPKRILEPHNGKCREFFPNHQWVKEETQEDKDCPIKEEKGSPLNAAPYGIESMSQDTEVRSRVVGGSLRGAQAASPAKGEPSLPEKDEDHALSYWKPFLVNMCVATVLTAGAYLCYRFLFNSNT
Consider B1, for which the “IR pYpY1162/1163 phosphorylation (immunoblot, ratio of phosphorylated InRβ to total InRβ)” value is on record as “such eNOS ablation-caused defect of insulin signaling was significantly restored by ectopic expression of PTP1B-C215S”.

The values are drawn from patent US20160033502.
